# Measurements published in PMC4858740 (2016).
# T1: SLAMF6 ECD (human, UniProt Q96DU3 22-226)
# T1 chain: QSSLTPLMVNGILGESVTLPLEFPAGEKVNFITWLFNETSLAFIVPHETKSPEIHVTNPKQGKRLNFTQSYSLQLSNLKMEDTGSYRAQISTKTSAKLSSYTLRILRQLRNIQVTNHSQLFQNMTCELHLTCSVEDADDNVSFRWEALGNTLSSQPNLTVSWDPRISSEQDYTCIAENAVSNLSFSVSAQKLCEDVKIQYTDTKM
# T2: SLAMF7 ECD (human, UniProt Q9NQ25 23-226)
# T2 chain: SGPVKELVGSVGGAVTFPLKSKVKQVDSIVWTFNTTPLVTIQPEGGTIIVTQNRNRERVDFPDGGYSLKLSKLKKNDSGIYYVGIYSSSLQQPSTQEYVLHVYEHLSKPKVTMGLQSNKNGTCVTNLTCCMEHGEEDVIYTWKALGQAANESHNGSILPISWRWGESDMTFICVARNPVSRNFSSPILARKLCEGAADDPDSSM
# T3: SLAMF5 ECD (human, UniProt Q9UIB8 22-225)
# T3 chain: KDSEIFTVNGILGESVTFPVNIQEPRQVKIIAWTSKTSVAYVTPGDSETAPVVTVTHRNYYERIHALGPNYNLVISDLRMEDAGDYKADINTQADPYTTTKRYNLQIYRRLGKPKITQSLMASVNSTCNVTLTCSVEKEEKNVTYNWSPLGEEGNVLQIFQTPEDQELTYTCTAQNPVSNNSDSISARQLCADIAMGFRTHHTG
# T4: SLAMF1 ECD (human, UniProt Q13291 21-237)
# T4 chain: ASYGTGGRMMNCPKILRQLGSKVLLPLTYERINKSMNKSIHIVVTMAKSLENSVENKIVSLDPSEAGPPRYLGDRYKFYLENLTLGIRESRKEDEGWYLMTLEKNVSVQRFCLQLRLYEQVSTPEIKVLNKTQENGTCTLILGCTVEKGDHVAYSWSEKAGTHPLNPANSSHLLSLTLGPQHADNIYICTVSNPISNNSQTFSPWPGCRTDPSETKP
# T5: SLAMF4 ECD (human, UniProt Q9BZW8 22-229)
# T5 chain: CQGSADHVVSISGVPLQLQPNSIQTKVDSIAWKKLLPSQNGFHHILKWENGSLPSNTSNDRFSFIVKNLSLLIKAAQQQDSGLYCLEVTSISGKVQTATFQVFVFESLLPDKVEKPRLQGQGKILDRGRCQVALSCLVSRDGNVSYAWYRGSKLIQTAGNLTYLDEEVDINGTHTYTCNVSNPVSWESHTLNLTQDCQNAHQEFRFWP
# T6: SLAMF3 ECD (human, UniProt Q9HBG7 48-454)
# T6 chain: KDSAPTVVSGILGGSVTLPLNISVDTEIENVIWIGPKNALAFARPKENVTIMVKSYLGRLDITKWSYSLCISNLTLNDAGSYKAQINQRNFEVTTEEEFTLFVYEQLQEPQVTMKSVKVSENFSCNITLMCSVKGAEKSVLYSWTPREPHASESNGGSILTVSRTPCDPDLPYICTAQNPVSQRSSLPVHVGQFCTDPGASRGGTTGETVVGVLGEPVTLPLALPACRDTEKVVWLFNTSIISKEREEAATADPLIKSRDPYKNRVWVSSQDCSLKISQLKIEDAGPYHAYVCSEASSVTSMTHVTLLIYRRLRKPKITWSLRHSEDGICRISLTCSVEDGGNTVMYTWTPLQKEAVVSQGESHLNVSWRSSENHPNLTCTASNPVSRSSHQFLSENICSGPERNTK
# B1: CD45RO ECD (domain or fragment)
# chain: QSPTPSPTDAYLNASETTTLSPSGSAVISTTTIATTPSKPTCDEKYANITVDYLYNKETKLFTAKLNVNENVECGNNTCTNNEVHNLTECKNASVSISHNSCTAPDKTLILDVPPGVEKFQLHDCTQVEKADTTICLKWKNIETFTCDTQNITYRFQCGNMIFDNKEIKLENLEPEHEYKCDSEILYNNHKFTNASKIIKTDFGSPGEPQIIFCRSEAAHQGVITWNPPQRSFHNFTLCYIKETEKDCLNLDKNLIKYDLQNLKPYTKYVLSLHAYIIAKVQRNGSAAMCHFTTKSAPPSQVWNMTVSMTSDNSMHVKCRPPRDRNGPHERYHLEVEAGNTLVRNESHKNCDFRVKDLQYSTDYTFKAYFHNGDYPGEPFILHHSTSYNSK
# What was measured:
# Test in all cases: SPR
# HAdV-D53 E3/49K = HAdV-D53 E3/49K (human adenovirus D53)
# HAdV-D23 E3/49K = HAdV-D23 E3/49K (human adenovirus D23)
# SLAMF6 ECD = biological target: T1, SLAMF6 ECD
# SLAMF7 ECD = biological target: T2, SLAMF7 ECD
# SLAMF5 ECD = biological target: T3, SLAMF5 ECD
# SLAMF1 ECD = biological target: T4, SLAMF1 ECD
# SLAMF4 ECD = biological target: T5, SLAMF4 ECD
# SLAMF8 ECD = SLAMF8 ECD (human, UniProt Q9P0V8 23-233)
# SLAMF3 ECD = biological target: T6, SLAMF3 ECD
# CD45RO ECD = biological target: B1
# Chain of SLAMF8 ECD (Q9P0V8 23-233): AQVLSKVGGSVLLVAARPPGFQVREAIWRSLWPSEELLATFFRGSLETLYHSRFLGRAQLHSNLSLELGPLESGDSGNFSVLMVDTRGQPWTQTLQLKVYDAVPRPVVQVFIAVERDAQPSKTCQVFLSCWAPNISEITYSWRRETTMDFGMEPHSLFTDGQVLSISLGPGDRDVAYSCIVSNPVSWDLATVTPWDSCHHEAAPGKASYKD
binder,measurement,setting,value
B1,Kd,HAdV-D53 E3/49K,0.21 nM
same,Kd,HAdV-D23 E3/49K,0.18 nM
HAdV-A18 CR1α (Fc fusion) LSPEEEPNCRPPLTNIKVVLSTTHVTLQCKFFSTQLTWTFNGKNVAEANLKYHINKENITLHSPIHLGYYRCFATPCVQAFFLAPVINPRPATTAQPEKITKLISTAIATTATKGTEEIIYFSNFTTNLLLNCSCSNSLISWFANNTFCKAFFQGTTLYSAKLELCNTSTPSNLTLLPPFVAGRYFCIGAGGHPCQRHWKLVFRPTLVLPTSADPTLSPTPNF,Kd,SLAMF6 ECD,631 nM
same,Kd,SLAMF7 ECD,137 nM
same,Kd,SLAMF5 ECD,2.1 nM
HAdV-B1 CR1γ (Fc fusion) RSHLTVPVGSTCTLQGPQEGYVTWWRIYDNGGFARPCDQPGTKFSCNGRDLTIINITSNEQGFYYGTNYKNSLDYNIIVVPATTSAPRKSTFSSSSAKASTIPKTASAMLKLPKIALSNSTAAPNTIPKST,Kd,SLAMF1 ECD,215 nM
same,Kd,SLAMF4 ECD,280 nM
same,Kd,SLAMF8 ECD,60 nM
same,Kd,SLAMF7 ECD,1.5 nM
same,Kd,SLAMF3 ECD,86 nM
HAdV-D30 E3/49K (Fc fusion) ADPILVSVDWGKNLKLEGPKETPVEWWGGKNIQQLCVGNQTKHKELRHTCNMQNITLLSVNTSFNGDYFGFKNDNSGMKHYKVTVIPPKPTTRKPLPPPHYVNATMGQNLTLVGPANIPVTWLSEFGTLCEGKKILHEELNHTCNEQNLTLLFVNMTHNGPYFGFGKDNVDREQYEVSIISLFKVGAGQKKIDKGQRAEEKTKFNSGDLGRKQSRPKKKDIVDEVQVKSGNNQTLIGPPGKNVDWIKLSSGNDAVVTLCKGDTWIKHTCNGPNVTLINVTKPYEGSYYGSSDDGSSHYKVTVYDLYKSNKSKSKVKPYTTKGTTVNATNANGLKNALQQDGESENDQESKIPSAT,Kd,SLAMF3 ECD,18 nM
same,Kd,CD45RO ECD,0.19 nM
